The record followed here is PMC7816212 (Nature, 2020).

No end group written: not given here. *: point of attachment. FITC = O=C1OC2(c3ccc(O)cc3Oc3cc(O)ccc32)c2ccc(NC(=S)*)cc21

For test [1], the target named is BodipyFL-labeled BCL6^5−360 (human, UniProt A5PL18 5-360, BodipyFL label (site not stated)). In words: FRET or BRET.
The next test has as its target biotinylated BCL6^5−129 (human, UniProt A5PL18 5-129, biotin). Put plainly: FRET or BRET. (In general: BRET reads energy transfer from a luciferase to a nearby fluorophore.)

B1: biotinylated Strep II Avi-tagged SIAH1^SBD (domain or fragment)
chain: VANSVLFPCKYASSGCEITLPHTEKADHEELCEFRPYSCPCPGASCKWQGSLDAVMPHLMHQHKSITTLQGEDIVFLATDINLPGAVDWVMMQSCFGFHFMLVLEKQEKYDGHQQFFAIVQLIGTRKQAENFAYRLELNGHRRRLTWEATPRSIHEGIATAIMNSDCLVFDTSIAQLFAENGNLGINVTISMC
modifications: biotin
A word on the Kd: it is the free concentration of one partner at which half of the binding sites on the other are occupied at equilibrium, for simple one-to-one binding. Higher therefore signals a looser complex. B1 had a Kd in test [1] of 0.2 µM.

B2: N-terminal FITC-labeled BCoR peptide (peptide)
peptide: {FITC}-RSEIISTAPSSWVVPGP
As for B2, the binding result with biotinylated BCL6^5−129 is on record as “binds”.
